The supplement of paper PMC10065799, “High-throughput profiling of sequence recognition by tyrosine kinases and SH2 domains using bacterial peptide display” (eLife, 2023)

Experiments:
Grb2 SH2 = Grb2 SH2 (UniProt P62993); assay: SH2 binding enrichment of the phosphorylated peptide, bacterial display (enrichment ratio); higher = better substrate or ligand; peptides without Tyr show the background
SHP2-C SH2 = assay: as above
c-Src SH2 = assay: as above
EPHB2 = EPHB2 (UniProt P29323); assay: phosphorylation enrichment, bacterial display (enrichment ratio); higher = better substrate or ligand; peptides without Tyr show the background
EPHB2, sequence (P29323 whole entry, looked up): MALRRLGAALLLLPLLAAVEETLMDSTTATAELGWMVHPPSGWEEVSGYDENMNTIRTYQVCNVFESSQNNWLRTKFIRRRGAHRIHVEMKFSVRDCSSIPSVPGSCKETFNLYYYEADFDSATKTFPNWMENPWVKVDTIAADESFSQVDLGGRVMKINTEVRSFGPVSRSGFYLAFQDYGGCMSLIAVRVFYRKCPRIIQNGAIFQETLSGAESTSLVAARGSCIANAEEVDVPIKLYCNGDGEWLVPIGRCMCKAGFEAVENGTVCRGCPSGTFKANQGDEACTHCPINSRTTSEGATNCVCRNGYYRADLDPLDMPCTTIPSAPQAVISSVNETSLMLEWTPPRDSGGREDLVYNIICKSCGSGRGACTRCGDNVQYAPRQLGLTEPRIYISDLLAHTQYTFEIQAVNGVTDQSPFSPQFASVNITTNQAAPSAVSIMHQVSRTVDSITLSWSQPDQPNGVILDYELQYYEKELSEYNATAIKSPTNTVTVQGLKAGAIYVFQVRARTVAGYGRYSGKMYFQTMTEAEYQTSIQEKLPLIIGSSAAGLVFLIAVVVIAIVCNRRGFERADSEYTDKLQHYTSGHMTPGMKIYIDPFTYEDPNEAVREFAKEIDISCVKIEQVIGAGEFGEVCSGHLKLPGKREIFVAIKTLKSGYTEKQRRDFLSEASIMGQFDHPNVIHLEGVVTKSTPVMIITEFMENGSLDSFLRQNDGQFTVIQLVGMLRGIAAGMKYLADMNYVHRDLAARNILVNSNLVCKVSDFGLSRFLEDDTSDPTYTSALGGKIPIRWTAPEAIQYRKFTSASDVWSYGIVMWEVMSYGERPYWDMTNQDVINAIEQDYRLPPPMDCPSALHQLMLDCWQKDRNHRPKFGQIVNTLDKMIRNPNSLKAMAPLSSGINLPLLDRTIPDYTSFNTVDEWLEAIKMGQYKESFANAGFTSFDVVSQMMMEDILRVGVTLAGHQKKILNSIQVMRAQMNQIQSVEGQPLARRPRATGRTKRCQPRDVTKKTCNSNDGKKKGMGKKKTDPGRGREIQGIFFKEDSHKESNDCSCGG

c-Abl (mouse) = assay: as above
FGFR3 = FGFR3 (UniProt P22607); assay: as above
FGFR3, sequence (P22607 whole entry, looked up): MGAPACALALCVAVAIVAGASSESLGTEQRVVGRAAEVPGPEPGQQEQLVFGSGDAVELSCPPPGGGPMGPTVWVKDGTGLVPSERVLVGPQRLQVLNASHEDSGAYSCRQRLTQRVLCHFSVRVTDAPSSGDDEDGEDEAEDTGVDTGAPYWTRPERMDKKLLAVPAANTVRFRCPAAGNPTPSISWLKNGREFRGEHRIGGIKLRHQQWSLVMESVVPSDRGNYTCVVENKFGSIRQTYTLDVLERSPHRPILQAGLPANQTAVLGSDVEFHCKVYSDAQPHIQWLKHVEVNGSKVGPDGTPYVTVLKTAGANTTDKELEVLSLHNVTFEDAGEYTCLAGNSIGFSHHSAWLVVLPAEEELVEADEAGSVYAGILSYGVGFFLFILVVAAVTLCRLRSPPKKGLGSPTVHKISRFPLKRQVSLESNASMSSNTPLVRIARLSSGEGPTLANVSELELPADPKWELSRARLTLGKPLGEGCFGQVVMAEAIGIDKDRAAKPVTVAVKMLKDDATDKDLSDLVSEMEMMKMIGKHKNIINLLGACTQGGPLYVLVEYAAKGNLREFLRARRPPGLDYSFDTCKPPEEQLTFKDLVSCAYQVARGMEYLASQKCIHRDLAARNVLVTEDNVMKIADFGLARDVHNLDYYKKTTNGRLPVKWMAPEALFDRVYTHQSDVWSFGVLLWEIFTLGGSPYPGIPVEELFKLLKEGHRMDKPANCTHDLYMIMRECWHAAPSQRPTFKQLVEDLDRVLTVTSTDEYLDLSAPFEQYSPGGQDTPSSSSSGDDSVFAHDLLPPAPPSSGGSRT

Fyn = Fyn (UniProt P06241); assay: as above
Jak2 = Jak2 (UniProt O60674); assay: as above
c-Src = assay: as above
FGFR1 = FGFR1 (UniProt P11362); assay: as above
FGFR1, sequence (P11362 whole entry, looked up): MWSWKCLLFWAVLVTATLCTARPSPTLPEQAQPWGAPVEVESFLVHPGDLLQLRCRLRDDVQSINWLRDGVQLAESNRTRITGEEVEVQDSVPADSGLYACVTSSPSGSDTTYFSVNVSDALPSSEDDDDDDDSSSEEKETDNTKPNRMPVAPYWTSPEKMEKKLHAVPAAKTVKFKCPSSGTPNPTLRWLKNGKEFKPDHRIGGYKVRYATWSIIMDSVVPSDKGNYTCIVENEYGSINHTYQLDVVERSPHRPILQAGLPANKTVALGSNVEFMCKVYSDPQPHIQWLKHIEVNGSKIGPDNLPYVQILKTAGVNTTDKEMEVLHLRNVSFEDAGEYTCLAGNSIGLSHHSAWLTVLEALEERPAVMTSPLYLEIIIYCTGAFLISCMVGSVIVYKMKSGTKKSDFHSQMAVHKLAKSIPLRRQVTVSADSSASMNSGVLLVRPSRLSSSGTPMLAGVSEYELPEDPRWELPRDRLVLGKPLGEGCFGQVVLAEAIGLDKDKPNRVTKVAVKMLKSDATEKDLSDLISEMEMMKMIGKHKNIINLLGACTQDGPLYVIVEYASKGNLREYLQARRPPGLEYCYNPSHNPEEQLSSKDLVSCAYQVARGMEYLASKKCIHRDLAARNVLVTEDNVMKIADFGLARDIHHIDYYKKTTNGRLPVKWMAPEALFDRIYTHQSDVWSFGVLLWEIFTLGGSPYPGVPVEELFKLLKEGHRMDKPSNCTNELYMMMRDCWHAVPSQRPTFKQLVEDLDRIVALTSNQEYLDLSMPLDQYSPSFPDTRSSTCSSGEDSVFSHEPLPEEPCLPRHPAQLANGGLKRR

Hck = Hck (UniProt P08631); assay: as above
Hck, sequence (P08631 whole entry, looked up): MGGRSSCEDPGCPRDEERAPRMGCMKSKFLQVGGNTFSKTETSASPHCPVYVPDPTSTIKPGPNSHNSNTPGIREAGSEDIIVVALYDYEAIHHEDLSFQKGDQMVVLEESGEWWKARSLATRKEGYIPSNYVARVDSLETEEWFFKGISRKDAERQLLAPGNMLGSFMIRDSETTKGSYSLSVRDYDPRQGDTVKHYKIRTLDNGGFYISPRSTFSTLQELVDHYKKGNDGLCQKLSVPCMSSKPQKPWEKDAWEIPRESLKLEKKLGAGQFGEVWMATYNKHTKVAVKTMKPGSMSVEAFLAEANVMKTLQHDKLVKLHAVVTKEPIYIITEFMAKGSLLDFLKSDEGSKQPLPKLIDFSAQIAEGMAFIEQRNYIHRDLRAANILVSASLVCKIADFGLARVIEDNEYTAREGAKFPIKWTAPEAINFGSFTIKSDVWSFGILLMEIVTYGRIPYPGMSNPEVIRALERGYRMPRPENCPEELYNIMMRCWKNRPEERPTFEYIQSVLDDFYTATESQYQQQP

Fes = Fes (UniProt P07332); assay: as above
Fes, sequence (P07332 whole entry, looked up): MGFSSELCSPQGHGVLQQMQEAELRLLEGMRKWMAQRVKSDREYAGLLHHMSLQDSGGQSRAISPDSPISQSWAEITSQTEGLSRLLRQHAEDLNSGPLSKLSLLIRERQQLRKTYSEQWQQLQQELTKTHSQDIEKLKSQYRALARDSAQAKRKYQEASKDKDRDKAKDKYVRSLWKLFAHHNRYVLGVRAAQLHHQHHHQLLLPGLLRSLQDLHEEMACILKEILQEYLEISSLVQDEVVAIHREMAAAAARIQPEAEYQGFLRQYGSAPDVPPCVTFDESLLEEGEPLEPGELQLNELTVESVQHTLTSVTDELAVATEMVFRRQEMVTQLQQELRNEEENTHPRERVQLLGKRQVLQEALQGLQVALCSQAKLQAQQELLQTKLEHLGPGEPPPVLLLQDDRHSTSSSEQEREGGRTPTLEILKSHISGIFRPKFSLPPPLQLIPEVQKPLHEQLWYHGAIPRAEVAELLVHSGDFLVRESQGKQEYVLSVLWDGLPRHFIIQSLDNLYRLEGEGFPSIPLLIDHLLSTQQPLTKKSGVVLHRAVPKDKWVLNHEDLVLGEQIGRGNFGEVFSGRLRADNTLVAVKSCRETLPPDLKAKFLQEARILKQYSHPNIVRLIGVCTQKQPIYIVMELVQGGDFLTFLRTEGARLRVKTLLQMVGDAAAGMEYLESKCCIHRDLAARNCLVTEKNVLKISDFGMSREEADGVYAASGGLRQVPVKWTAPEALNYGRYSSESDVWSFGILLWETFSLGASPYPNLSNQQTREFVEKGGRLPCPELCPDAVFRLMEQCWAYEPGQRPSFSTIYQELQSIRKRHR

AncSZ = assay: as above
Fer (mouse) = assay: as above
EPHB1 = EPHB1 (UniProt P54762); assay: as above
MERTK = MERTK (UniProt Q12866); assay: as above
MERTK, sequence (Q12866 whole entry, looked up, the tested form may be a part): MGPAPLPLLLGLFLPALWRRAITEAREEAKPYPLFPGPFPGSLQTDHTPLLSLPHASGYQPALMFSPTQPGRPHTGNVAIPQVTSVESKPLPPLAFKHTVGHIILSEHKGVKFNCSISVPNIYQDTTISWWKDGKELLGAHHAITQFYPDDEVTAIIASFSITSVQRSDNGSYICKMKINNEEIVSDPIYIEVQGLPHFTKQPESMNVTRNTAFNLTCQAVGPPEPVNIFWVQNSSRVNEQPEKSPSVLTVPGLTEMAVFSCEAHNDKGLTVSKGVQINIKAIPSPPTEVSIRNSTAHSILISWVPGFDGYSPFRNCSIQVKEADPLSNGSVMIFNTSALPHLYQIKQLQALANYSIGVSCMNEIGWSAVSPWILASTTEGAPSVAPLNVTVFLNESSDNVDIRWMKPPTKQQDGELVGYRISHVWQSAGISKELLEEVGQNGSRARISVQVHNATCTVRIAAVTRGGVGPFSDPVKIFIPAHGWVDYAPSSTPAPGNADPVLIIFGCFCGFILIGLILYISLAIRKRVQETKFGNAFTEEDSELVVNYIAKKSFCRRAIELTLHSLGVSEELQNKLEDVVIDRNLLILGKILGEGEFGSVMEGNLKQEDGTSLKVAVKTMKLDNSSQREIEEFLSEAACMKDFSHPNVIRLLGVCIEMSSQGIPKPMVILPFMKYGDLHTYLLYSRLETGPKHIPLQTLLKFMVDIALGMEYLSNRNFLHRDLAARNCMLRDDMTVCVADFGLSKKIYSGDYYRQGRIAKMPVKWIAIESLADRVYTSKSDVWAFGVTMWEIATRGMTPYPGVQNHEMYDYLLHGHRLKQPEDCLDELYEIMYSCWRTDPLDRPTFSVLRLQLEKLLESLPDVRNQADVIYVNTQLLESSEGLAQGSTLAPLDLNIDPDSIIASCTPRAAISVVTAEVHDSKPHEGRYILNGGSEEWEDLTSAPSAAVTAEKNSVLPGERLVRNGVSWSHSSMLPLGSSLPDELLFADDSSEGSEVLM
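For SH2 binding enrichment of the phosphorylated peptide, bacterial display in this document: peptide library displayed on the E. coli surface as eCPX fusions, selected cells deep-sequenced, score is each peptide's frequency after selection divided by its frequency in the input.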
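For phosphorylation enrichment, bacterial display in this document: 11-residue human phosphosite peptides and single-mutation variants displayed on the E. coli surface, counted by deep sequencing, each peptide's frequency after selection divided by its frequency in the unselected input library; frequency after pTyr selection over input frequency; kinase dosed for 20-30% of maximal phosphorylation in three min.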

| Sequence | SH2 binding enrichment (Grb2 SH2) | SH2 binding enrichment (SHP2-C SH2) | SH2 binding enrichment (c-Src SH2) | phosphorylation enrichment (EPHB2) | phosphorylation enrichment (c-Abl (mouse)) | phosphorylation enrichment (FGFR3) | phosphorylation enrichment (Fyn) | phosphorylation enrichment (Jak2) | phosphorylation enrichment (c-Src) | phosphorylation enrichment (FGFR1) | phosphorylation enrichment (Hck) | phosphorylation enrichment (Fes) | phosphorylation enrichment (AncSZ) | phosphorylation enrichment (Fer (mouse)) | phosphorylation enrichment (EPHB1) | phosphorylation enrichment (MERTK) |
| --- | --- | --- | --- | --- | --- | --- | --- | --- | --- | --- | --- | --- | --- | --- | --- | --- |
| NPSYNYEIVNQ [DYNC1H1_Y3379_R3384Q] | 0.736 | 0.348 | 0.642 | 4.17 | 0.55 | 0.701 | 0.463 | 0.754 | 0.506 | 0.583 | 0.497 | 0.818 | 0.885 | 2.7 | 10.5 | 0.694 |
| NREGVYTDFAP [TGFBI_Y537_V539D] | 0.976 | 0.927 | 0.661 | 0.624 | 0.868 | 0.608 | 9.31 | 0.823 | 7.49 | 0.645 | 2.95 | 1.13 | 0.843 | 2.51 | 0.578 | 1.71 |
| NSFKFYMSDDI [ATRX_Y204_C200S_YF] | 0.982 | 0.79 | 0.604 | 0.552 | 0.657 | 0.693 | 0.517 | 1.12 | 0.574 | 0.53 | 0.54 | 1.28 | 1.14 | 0.488 | 0.56 | 0.497 |
| NSRFTYKLEVK [USH2A_Y3747_YF] | 0.757 | 0.561 | 0.331 | 0.545 | 0.853 | 0.761 | 0.38 | 1.25 | 0.382 | 0.432 | 0.475 | 1.39 | 1.22 | 0.599 | 0.649 | 0.467 |
| NTCNRYCRDEI [ITGB3_Y660] | 0.938 | 0.658 | 0.808 | 0.427 | 0.596 | 0.486 | 0.485 | 0.714 | 0.5 | 0.492 | 0.407 | 0.777 | 0.794 | 0.43 | 0.567 | 0.535 |
| NTTIHYNYMCN [TP53_Y234_C229N] | 0.931 | 0.848 | 2.42 | 0.692 | 0.707 | 0.803 | 0.55 | 0.817 | 0.496 | 0.767 | 0.579 | 1.06 | 1.08 | 0.566 | 0.747 | 0.574 |
| NTVDYYDLYGG [PTPN11_Y63_G60V] | 0.985 | 0.692 | 0.801 | 3.7 | 0.788 | 13.1 | 6.7 | 1.47 | 4.25 | 15.3 | 5.68 | 1.21 | 2.56 | 1.19 | 4.4 | 1.35 |
| NVTGHYIPPFH [PPA2_Y59_S61P] | 0.779 | 0.994 | 0.538 | 0.393 | 0.735 | 0.463 | 0.445 | 0.498 | 0.443 | 0.396 | 0.418 | 0.679 | 0.518 | 0.395 | 0.455 | 0.659 |
| NYADPYRQLQY [CTNND2_Y503] | 0.892 | 1.12 | 1.5 | 10.8 | 0.687 | 1.99 | 0.43 | 0.672 | 0.551 | 3.72 | 0.615 | 0.747 | 0.776 | 0.464 | 9.61 | 2.57 |
| PDGREYIFVDP [PDGFRA_Y572_H570R_YF] | 0.789 | 0.618 | 0.543 | 0.532 | 0.488 | 1.2 | 0.649 | 1.02 | 0.431 | 1.86 | 0.647 | 1.08 | 2.12 | 0.615 | 0.62 | 0.49 |
| PDNKPYIFKVF [PIK3AP1_Y553_E551K] | 1.08 | 1.03 | 0.568 | 0.919 | 0.79 | 0.831 | 0.665 | 1.03 | 0.526 | 0.681 | 0.619 | 1.75 | 1.37 | 0.728 | 0.752 | 0.428 |
| PDSVDYPKKGF [CTSK_Y121_R122P_YF] | 0.872 | 0.486 | 0.531 | 1.13 | 2.12 | 1.05 | 1.17 | 1.97 | 1.52 | 1.12 | 1.15 | 1.78 | 1.75 | 1.52 | 1.48 | 1.31 |
| PELIDYGKLRK [ACTN1_Y193] | 0.581 | 0.6 | 0.478 | 0.668 | 0.537 | 0.544 | 0.587 | 0.368 | 0.404 | 0.714 | 0.446 | 0.8 | 0.86 | 0.465 | 0.441 | 0.62 |
| PEPHIYAVADV [MYO9A_Y216_L211P] | 0.909 | 0.654 | 4.08 | 2.18 | 25 | 1.01 | 3.21 | 0.695 | 3.72 | 0.667 | 3.16 | 1.55 | 1.11 | 3.02 | 1.11 | 2.97 |
| PHMQTYEVDHN [SDHB_Y61_L65H] | 1.09 | 0.604 | 0.591 | 3.83 | 0.864 | 0.783 | 1.03 | 0.94 | 1.04 | 0.676 | 0.506 | 1.01 | 1.31 | 0.571 | 0.758 | 0.425 |
| PIAPVYAASMV [ACAT1_Y331] | 0.882 | 0.699 | 0.506 | 2.19 | 48.5 | 0.548 | 14.3 | 1.34 | 10.5 | 0.744 | 13.5 | 1.07 | 0.837 | 8.12 | 2.45 | 5.19 |
| PLDGEYFTLHI [TP53_Y327_Q331H] | 0.852 | 0.594 | 0.365 | 0.97 | 1.93 | 4.7 | 2.35 | 4.23 | 2.97 | 5.77 | 1.51 | 1.68 | 2.49 | 0.816 | 0.808 | 0.752 |

| Sequence | SH2 binding enrichment (Grb2 SH2) | SH2 binding enrichment (SHP2-C SH2) | SH2 binding enrichment (c-Src SH2) | phosphorylation enrichment (EPHB2) | phosphorylation enrichment (c-Abl (mouse)) | phosphorylation enrichment (FGFR3) | phosphorylation enrichment (Fyn) | phosphorylation enrichment (Jak2) | phosphorylation enrichment (c-Src) | phosphorylation enrichment (FGFR1) | phosphorylation enrichment (Hck) | phosphorylation enrichment (Fes) | phosphorylation enrichment (AncSZ) | phosphorylation enrichment (Fer (mouse)) | phosphorylation enrichment (EPHB1) | phosphorylation enrichment (MERTK) |
| --- | --- | --- | --- | --- | --- | --- | --- | --- | --- | --- | --- | --- | --- | --- | --- | --- |
| PLDGEYFTLQI [TP53_Y327] | 0.686 | 0.718 | 0.344 | 1.36 | 1.57 | 7.34 | 4.48 | 4.17 | 3.81 | 9.82 | 2.55 | 1.47 | 4.14 | 1.19 | 1.32 | 0.663 |
| PLDGEYSTLQI [TP53_Y327_F328S] | 0.399 | 0.272 | 0.433 | 1.17 | 1.33 | 1.18 | 2.2 | 1.33 | 2.97 | 1.77 | 3.08 | 1.53 | 2.13 | 3.56 | 1.27 | 0.75 |
| PLGVLYKVKVF [PTS_Y128_V124L_YF] | 0.88 | 0.896 | 0.494 | 0.824 | 0.973 | 0.862 | 0.801 | 1.23 | 0.311 | 0.562 | 0.553 | 1.64 | 1.54 | 0.692 | 0.922 | 0.446 |
| PLQHVYKIGGI [EEF1A2_Y254_D252H] | 0.941 | 0.588 | 0.517 | 0.71 | 0.766 | 0.733 | 0.643 | 1.52 | 0.959 | 0.649 | 0.865 | 1.06 | 0.964 | 0.696 | 0.73 | 0.739 |
| PLQKTYNYNVL [SLC4A1_Y553] | 0.708 | 0.766 | 1.12 | 0.689 | 0.881 | 0.691 | 0.495 | 0.986 | 0.565 | 0.711 | 0.596 | 1.08 | 0.872 | 0.628 | 0.66 | 0.43 |
| PMDTYYDSTRG [DYNC2H1_Y2231] | 0.666 | 0.44 | 0.742 | 1.37 | 1.15 | 2.3 | 1.43 | 1.14 | 1.91 | 3.15 | 1.86 | 1.31 | 1.5 | 0.799 | 1.28 | 0.827 |
| PMWHPYKADVT [TP53TG5_Y255_V257A] | 0.791 | 1.04 | 0.484 | 0.572 | 0.94 | 0.6 | 0.565 | 0.911 | 0.756 | 0.309 | 0.615 | 1.12 | 0.851 | 0.588 | 0.657 | 0.428 |
| PPSGEYFGQCG [TRIP6_Y275] | 1.19 | 0.829 | 0.791 | 0.953 | 1.58 | 1.06 | 0.552 | 1.52 | 0.771 | 1.23 | 0.764 | 1.37 | 1.58 | 0.824 | 1.39 | 0.573 |
| PQQLWYTHEKK [UBTF_Y207] | 1.2 | 0.812 | 0.833 | 0.327 | 0.499 | 0.481 | 0.409 | 0.802 | 0.473 | 0.516 | 0.496 | 0.792 | 0.652 | 0.339 | 0.58 | 0.361 |
| PRAEWYRDDVL [MYOM2_Y317] | 0.802 | 0.637 | 0.585 | 0.725 | 0.879 | 0.818 | 0.572 | 1.11 | 0.546 | 0.507 | 0.586 | 1.46 | 1.31 | 0.767 | 0.959 | 0.681 |
| PSDSGYSFETI [MAP1B_Y1921_YF] | 0.971 | 0.874 | 2.13 | 1.1 | 0.763 | 1.05 | 0.703 | 1.25 | 0.405 | 0.633 | 0.635 | 1.25 | 1.05 | 0.608 | 0.639 | 0.641 |
| PSDSGYSYETI [MAP1B_Y1921] | 1.79 | 0.523 | 7.7 | 0.467 | 0.664 | 0.688 | 0.599 | 0.848 | 0.454 | 0.627 | 0.577 | 1.38 | 1.35 | 0.642 | 0.596 | 0.583 |
| PSPTRYSLSPS [RANBP2_Y785] | 0.759 | 0.454 | 0.438 | 0.856 | 1.5 | 0.577 | 0.537 | 0.439 | 0.597 | 0.525 | 0.515 | 0.886 | 0.976 | 0.436 | 0.536 | 0.56 |
| PSQRCYVYYYS [PTEN_Y174_R173C] | 0.825 | 0.645 | 0.286 | 0.556 | 1.77 | 1.8 | 1.09 | 2.59 | 3.16 | 1.41 | 1.03 | 2.28 | 2.35 | 0.807 | 0.931 | 2.02 |
| PTEAQYRFIYM [PTPN11_Y511_Q506P] | 0.528 | 0.673 | 0.335 | 0.777 | 1.98 | 2.82 | 1.04 | 2.37 | 1.75 | 3.16 | 1.35 | 2.2 | 2.44 | 1.54 | 1.08 | 1.18 |
| PTTKSYFPHFD [HBA1_Y43_T42S] | 1.08 | 0.812 | 0.593 | 0.442 | 0.501 | 0.77 | 0.431 | 0.558 | 0.498 | 1.38 | 0.752 | 1.42 | 1.13 | 0.497 | 0.746 | 0.664 |
